Results reported in paper PMC10628234.

Molecular target: Coxiella burnetii Fic enzyme 2 (CbFic2), wild type, untagged (Coxiella burnetii) (UniProt Q83DB6)
Test: crystal structure

Coxiella burnetii Fic enzyme 2 (CbFic2), wild type, untagged (from UniProt Q83DB6 1-378)
stoichiometry N: 2
